Consider six molecules from patent US20140105889A1 (published 2014).

The target in test [1] is T1, human FcγRIIIa(F) (human, UniProt P08637 17-208, limits assumed).
T1 construct: also called hFcgRIIIa(F); allotype F158
The test can be described thus: SPR (Biacore), captured antibody, FcgR as analyte, HBS-EP+, 25 C; bound amount corrected for captured antibody, relative to GpH7-G1d/GpL16-k0.
T1 sequence (P08637 other isoform, or with tags, fused parts or gaps limits assumed): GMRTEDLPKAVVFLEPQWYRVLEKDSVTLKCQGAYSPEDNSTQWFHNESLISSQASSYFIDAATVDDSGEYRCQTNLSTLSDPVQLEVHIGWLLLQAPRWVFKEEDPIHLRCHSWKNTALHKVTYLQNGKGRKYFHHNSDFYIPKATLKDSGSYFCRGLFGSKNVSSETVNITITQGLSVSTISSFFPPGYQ
Description: (§1) Interaction between each modified antibody and Fcγ receptor prepared in the manner described above was analyzed using the Biacore T100 (GE Healthcare), Biacore T200 (GE Healthcare), Biacore A100 or Biacore 4000. HBS-EP+ (GE Healthcare) was used for the running buffer, and measurements were carried out at 25° C. The chips used were chips in which antigen peptides, Protein A (Thermo Scientific), Protein A/G (Thermo Scientific) or Protein L (ACTIGEN or BioVision) were immobilized on the Series S Sensor Chip CM5 (GE Healthcare) or Series S Sensor Chip CM4 (GE Healthcare) by amine coupling, or chips in which preliminarily biotinylated antigen peptides were allowed to interact and then immobilized on the Series S Sensor Chip SA (certified) (GE Healthcare). The target antibodies were captured on these sensor chips, Fcγ receptor diluted with the running buffer was allowed to interact, followed by measurement of the amount of bound antibody. The amounts bound were compared between antibodies. However, since the amount of Fcγ receptor bound depends on the amount of captured antibody, the values used for comparison were first corrected by dividing the amount of Fcγ receptor bound by the captured amount of each antibody. Through reaction with 10 mM glycine-HCl at pH 1.5, the sensor chips were regenerated by washing off antibody captured on the sensor chips and used repeatedly.

Test [2] has as its target T2, human FcγRIIIa(F) (human, UniProt P08637 17-208, limits assumed).
T2 construct: also called FcgRIIIaF; FcγRIIIa allotype F158
The test can be described thus: SPR (Biacore), captured antibody, FcγR analyte; bound/captured amount vs control x100.
Description: as §1

For test [3], the target named is T3, FcγRIIb (human, UniProt P31994 43-217, limits assumed).
T3 construct: also called FcγIIB; FcgRIIb
T3 sequence: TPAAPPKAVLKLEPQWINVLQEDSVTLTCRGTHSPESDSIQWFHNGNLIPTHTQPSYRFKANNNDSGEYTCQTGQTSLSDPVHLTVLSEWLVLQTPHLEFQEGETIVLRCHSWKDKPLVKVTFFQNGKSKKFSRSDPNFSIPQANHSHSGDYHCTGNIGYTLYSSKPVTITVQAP
Description: ratio of SPR KD values of this variant (FcγRIIaR over FcγRIIb).
Description: (§2) Furthermore, KD(IIaR)/KD(IIb) and KD(IIaH)/KD(IIb) in the table respectively represent the value obtained by dividing the KD value of each variant for FcγRIIaR by the KD value of each variant for FcγRIIb, and the value obtained by dividing the KD value of each variant for FcγRIIaH by the KD value of each variant for FcγRIIb.

In test [4] the target is T3, FcγRIIb. The test can be described thus: ratio of SPR KD values of this variant (FcγRIIaH over FcγRIIb).
Description: as §2
The target in test [5] is T4, FcγRIIa type H (human, UniProt P12318 36-217).
T4 construct: also called FcγRIIaH; FcγRIIa(H)
T4 sequence: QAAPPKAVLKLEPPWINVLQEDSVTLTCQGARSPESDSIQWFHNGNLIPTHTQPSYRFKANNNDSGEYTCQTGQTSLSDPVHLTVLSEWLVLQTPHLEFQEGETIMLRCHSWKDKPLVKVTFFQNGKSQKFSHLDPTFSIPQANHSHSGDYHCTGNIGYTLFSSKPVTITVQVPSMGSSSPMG
The test can be described thus: SPR (Biacore), captured antibody, FcγR as analyte, method of Example 14.

Another test concerns the target T5, FcγRIIIa type V (human, UniProt P08637 17-208, limits assumed).
T5 construct: also called FcγRIIIaV; FcγRIIIa(V)
The test is described as above.

The target of test [6] is T3, FcγRIIb. The description is as above.
Test [7] deals with T6, FcγRIa (human, UniProt P12314 16-292, limits assumed).
T6 construct: Soluble analyte in Biacore; also called FcgRIa; CD64
The test can be described thus: SPR (Biacore), antibody captured on chip, FcγR as analyte, method of Example 14.
T6 sequence (P12314 16-292 limits assumed): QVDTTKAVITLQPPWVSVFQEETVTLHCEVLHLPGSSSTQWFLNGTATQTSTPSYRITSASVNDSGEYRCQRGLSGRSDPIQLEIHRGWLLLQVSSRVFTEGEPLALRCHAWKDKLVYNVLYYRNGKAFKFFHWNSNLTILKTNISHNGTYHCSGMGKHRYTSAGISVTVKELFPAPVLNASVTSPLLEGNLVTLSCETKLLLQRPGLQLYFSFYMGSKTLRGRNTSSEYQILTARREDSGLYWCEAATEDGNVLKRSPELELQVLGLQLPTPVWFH
Description: (§3) Next, interaction between these antibodies and FcγR was analyzed kinetically using the Biacore T100 (GE Healthcare). The interaction was measured at a temperature of 25° C. using HBS-EP+ (GE Healthcare) for the running buffer. The Series S Sensor Chip CM5 (GE Healthcare) was used after immobilizing Protein A by amine coupling. […] Antibody captured on the chip was washed by allowing 10 mM glycine-HCl (pH 1.5) to react following measurement. The chip regenerated in this manner was used repeatedly. The dissociation constant KD (mol/L) was calculated from the association rate constant ka (L/mol/s) and dissociation rate constant kd (1/s) as calculated by global-fitting the measurement results with a 1:1 Langmuir binding model using the Biacore

Test [8] has as its target T7, FcγRIIa type H (human, UniProt P12318 36-217).
T7 construct: Soluble analyte in Biacore; also called FcγRIIaH; FcγRIIa(H)
T7 sequence: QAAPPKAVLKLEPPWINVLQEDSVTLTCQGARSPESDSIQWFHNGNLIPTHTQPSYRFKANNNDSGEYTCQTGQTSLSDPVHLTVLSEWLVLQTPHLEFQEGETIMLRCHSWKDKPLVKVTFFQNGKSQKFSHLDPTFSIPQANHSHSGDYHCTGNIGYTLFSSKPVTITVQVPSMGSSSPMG
The description is as above.
Description: as §3

In test [9] the target is T8, FcγRIIb (human, UniProt P31994 43-217, limits assumed).
T8 construct: Soluble analyte in Biacore; also called FcgRIIb; FcγIIB
T8 sequence: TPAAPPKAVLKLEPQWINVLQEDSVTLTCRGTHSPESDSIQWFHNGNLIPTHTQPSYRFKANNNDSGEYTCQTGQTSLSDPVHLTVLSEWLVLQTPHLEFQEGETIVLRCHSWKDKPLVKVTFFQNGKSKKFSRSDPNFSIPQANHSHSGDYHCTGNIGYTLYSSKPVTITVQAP
The description is as above.
Description: as §3

For another test, the target named is T9, FcγRIIa type R (human, UniProt P12318 36-217).
T9 construct: Soluble analyte in Biacore; also called FcγRIIaR; FcγRIIa(R)
T9 chain: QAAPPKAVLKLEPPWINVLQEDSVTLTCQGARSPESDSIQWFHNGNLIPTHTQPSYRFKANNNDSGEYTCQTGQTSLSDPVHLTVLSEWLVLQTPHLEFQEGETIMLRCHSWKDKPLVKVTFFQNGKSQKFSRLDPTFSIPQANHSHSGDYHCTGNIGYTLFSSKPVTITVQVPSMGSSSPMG
The test is described as above.

The target of test [10] is T8, FcγRIIb. The test can be described thus: SPR (Biacore); ratio against the parent IL6R-B3/IL6R-L.
Description: as §3
For test [11], the target named is T10, human FcγRIIb (human, UniProt P31994 43-217).
T10 construct: also called FcγIIB
T10 sequence: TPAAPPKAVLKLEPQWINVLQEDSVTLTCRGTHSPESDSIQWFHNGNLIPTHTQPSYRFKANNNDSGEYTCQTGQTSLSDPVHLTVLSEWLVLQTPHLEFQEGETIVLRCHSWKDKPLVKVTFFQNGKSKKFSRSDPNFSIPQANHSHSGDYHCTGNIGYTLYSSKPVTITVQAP
Description: SPR (Biacore); KD of parent IL6R-B3/IL6R-L for FcγRIIb divided by KD of the variant for FcγRIIb.
Description: as §2

The target of test [12] is T11, human FcγRIIa type H (allotype H131) (human, UniProt P12318 36-217).
T11 construct: also called FcγRIIaH; FcγRIIa(H)
T11 sequence: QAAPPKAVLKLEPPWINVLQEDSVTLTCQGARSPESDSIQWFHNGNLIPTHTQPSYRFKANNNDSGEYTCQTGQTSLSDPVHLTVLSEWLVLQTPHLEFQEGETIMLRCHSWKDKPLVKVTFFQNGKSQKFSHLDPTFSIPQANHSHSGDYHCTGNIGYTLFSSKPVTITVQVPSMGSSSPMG
The test can be described thus: SPR (Biacore), antibody captured on the chip, FcγR as analyte.

The target of test [13] is T10, human FcγRIIb. Described as above.
For test [14], the target named is T12, human FcγRIIa type R (allotype R131) (human, UniProt P12318 36-217).
T12 construct: also called FcγRIIaR; FcγRIIa(R)
T12 chain: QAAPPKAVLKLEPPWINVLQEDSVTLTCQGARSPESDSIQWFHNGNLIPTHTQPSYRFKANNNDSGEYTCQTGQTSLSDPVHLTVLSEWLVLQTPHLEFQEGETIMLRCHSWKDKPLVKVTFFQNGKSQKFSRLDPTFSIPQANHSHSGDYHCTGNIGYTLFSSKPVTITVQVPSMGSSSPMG
The test is described as above.

For the next test, the target named is T13, human FcγRIa (human, UniProt P12314 16-292, limits assumed).
T13 construct: also called CD64
Described as above.

Test [15] addresses T14, FcγRIa (human, UniProt P12314 16-292, limits assumed).
T14 construct: also called CD64; FcgRIa
The test can be described thus: SPR (Biacore), captured antibody, FcγR as analyte, method of Example 14.
T14 sequence (P12314 16-292 limits assumed): as the sequence (P12314 16-292 limits assumed) above

T5 sequence (P08637 other isoform, or with tags, fused parts or gaps limits assumed): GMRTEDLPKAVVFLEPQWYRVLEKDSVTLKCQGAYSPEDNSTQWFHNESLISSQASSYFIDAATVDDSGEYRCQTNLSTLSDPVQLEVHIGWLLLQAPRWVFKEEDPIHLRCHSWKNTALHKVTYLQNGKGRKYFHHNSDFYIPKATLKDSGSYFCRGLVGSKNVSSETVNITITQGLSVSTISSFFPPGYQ
T13 sequence (P12314 16-292 limits assumed): as the sequence (P12314 16-292 limits assumed) above

B1: GpH7-B3/GpL16-k0 (antibody, human IgG1)
heavy: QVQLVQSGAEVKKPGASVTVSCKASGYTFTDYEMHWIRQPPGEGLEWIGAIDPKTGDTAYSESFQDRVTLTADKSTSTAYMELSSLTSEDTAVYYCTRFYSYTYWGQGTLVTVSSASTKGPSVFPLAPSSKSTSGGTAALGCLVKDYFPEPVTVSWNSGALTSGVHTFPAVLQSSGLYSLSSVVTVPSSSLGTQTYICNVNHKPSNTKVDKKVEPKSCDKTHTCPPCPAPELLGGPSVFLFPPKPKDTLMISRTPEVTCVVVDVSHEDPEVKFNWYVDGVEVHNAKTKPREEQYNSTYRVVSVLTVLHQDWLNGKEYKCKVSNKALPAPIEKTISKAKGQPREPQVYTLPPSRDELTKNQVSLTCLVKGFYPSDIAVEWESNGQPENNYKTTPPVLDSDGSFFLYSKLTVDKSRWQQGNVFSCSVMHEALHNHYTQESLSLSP
light: DIVMTQSPLSLPVTPGEPASISCQASESLVHSNRNTYLHWYLQKPGQSPQLLIYKVSNRFSGVPDRFSGSGSGTDFTLKISRVEAEDVGVYYCSQNTHVPPTFGQGTKVEIE
notes: Anti-glypican-3 antibody, human IgG1 constant region B3
Take B1: the “relative binding activity (bound amount / bound amount of GpH7-G1d/GpL16-k0 x 100)” value with human FcγRIIIa(F) [1] was found to be 88.

B2: GpH7-B3 D265S/GpL16-k0 (antibody, human IgG1)
heavy: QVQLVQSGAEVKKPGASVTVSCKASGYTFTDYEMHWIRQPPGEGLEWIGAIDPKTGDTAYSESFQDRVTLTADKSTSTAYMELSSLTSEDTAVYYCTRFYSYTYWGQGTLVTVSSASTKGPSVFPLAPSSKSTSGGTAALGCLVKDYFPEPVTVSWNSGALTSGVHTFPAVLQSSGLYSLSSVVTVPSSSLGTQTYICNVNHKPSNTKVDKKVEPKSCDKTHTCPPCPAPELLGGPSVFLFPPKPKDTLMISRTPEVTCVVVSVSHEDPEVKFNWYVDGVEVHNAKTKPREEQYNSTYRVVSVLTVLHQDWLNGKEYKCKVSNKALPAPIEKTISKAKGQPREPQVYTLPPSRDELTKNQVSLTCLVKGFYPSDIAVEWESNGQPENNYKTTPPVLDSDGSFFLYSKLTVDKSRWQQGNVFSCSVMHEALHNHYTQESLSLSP
light: DIVMTQSPLSLPVTPGEPASISCQASESLVHSNRNTYLHWYLQKPGQSPQLLIYKVSNRFSGVPDRFSGSGSGTDFTLKISRVEAEDVGVYYCSQNTHVPPTFGQGTKVEIE
notes: B3 variant of anti-glypican-3 IgG1; substitution in EU numbering; also called B3 variant
Consider B2, for which the relative binding activity with human FcγRIIIa(F) [2] was 2 % of GpH7-B3/GpL16-k0.

B3: IL6R-BP179/IL6R-L (antibody, human IgG1)
heavy: QVQLQESGPGLVKPSETLSLTCAVSGHSISHDHAWSWVRQPPGEGLEWIGFISYSGITNYNPSLQGRVTISRDNSKNTLYLQMNSLRAEDTAVYYCARSLARTTAMDYWGEGTLVTVSSASTKGPSVFPLAPSSKSTSGGTAALGCLVKDYFPEPVTVSWNSGALTSGVHTFPAVLQSSGLYSLSSVVTVPSSSLGTQTYICNVNHKPSNTKVDKKVEPKSCDKTHTCPPCPAPELLGDDSVFLFPPKPKDTLMISRTPEVTCVVVDVSHEDGEVKFNWYVDGVEVHNAKTKPREEQYNSTYRVVSVLTVLHQDWLNGKEYKCKVSNAALPKPIEKTISKAKGQPREPQVYTLPPSRDELTKNQVSLTCLVKGFYPSDIAVEWESNGQPENNYKTTPPVLDSDGSFFLYSKLTVDKSRWQQGNVFSCSVMHEALHNHYTQESLSLSP
light: DIQMTQSPSSLSASVGDRVTITCRASQDISSYLNWYQQKPGKAPKLLIYYTSRLHSGVPSRFSGSGSGTDFTFTISSLQPEDIATYYCQQGNTLPYTFGQGTKVEIK
notes: EU numbering
On to B3, for which, in the test with FcγRIIb [3], the “KD (IIaR)/KD (IIb)” value worked out at 16.7. Besides, in the test with FcγRIIb [4], the “KD (IIaH)/KD (IIb)” value is 191. The values for the Kd with FcγRIIa type H [5], with FcγRIIIa type V and in the test with FcγRIIb [6] were 1600 nM, 55000 nM and 64 nM, respectively.

B4: IL6R-BP214/IL6R-L (antibody, human IgG1)
heavy: QVQLQESGPGLVKPSETLSLTCAVSGHSISHDHAWSWVRQPPGEGLEWIGFISYSGITNYNPSLQGRVTISRDNSKNTLYLQMNSLRAEDTAVYYCARSLARTTAMDYWGEGTLVTVSSASTKGPSVFPLAPSSKSTSGGTAALGCLVKDYFPEPVTVSWNSGALTSGVHTFPAVLQSSGLYSLSSVVTVPSSSLGTQTYICNVNHKPSNTKVDKKVEPKSCDKTHTCPPCPAPDYLGDDSVFLFPPKPKDTLMISRTPEVTCVVVDVSHEDPEVKFNWYVDGVEVHNAKTKPREEQDNSTYRVVSVLTVLHQDWLNGKEYKCKVSNDALPKPIEKTISKAKGQPREPQVYTLPPSRDELTKNQVSLTCLVKGFYPSDIAVEWESNGQPENNYKTTPPVLDSDGSFFLYSKLTVDKSRWQQGNVFSCSVMHEALHNHYTQESLSLSP
light: DIQMTQSPSSLSASVGDRVTITCRASQDISSYLNWYQQKPGKAPKLLIYYTSRLHSGVPSRFSGSGSGTDFTFTISSLQPEDIATYYCQQGNTLPYTFGQGTKVEIK
notes: Anti-human IL-6 receptor IgG1 Fc variant
B4: the Kd with FcγRIa [7] turned out to be 59 nM; in the test with FcγRIIa type H [8], 9200 nM; in the test with FcγRIIb [9] it was 120 nM; with FcγRIIa type R, 1700 nM. The “KD(IIb) of the parent polypeptide/KD(IIb) of the altered polypeptide” value with FcγRIIb [10] amounted to 26.2 fold.

B5: IL6R-BP200/IL6R-L (antibody, human IgG1)
heavy: QVQLQESGPGLVKPSETLSLTCAVSGHSISHDHAWSWVRQPPGEGLEWIGFISYSGITNYNPSLQGRVTISRDNSKNTLYLQMNSLRAEDTAVYYCARSLARTTAMDYWGEGTLVTVSSASTKGPSVFPLAPSSKSTSGGTAALGCLVKDYFPEPVTVSWNSGALTSGVHTFPAVLQSSGLYSLSSVVTVPSSSLGTQTYICNVNHKPSNTKVDKKVEPKSCDKTHTCPPCPAPDYLGDDSVFLFPPKPKDTLMISRTPEVTCVVVDVSHEDGEVKFNWYVDGVEVHNAKTKPREEQYNSTYRVVSVLTVLHQDWLNGKEYKCKVSNDALPRPIEKTISKAKGQPREPQVYTLPPSRDELTKNQVSLTCLVKGFYPSDIAVEWESNGQPENNYKTTPPVLDSDGSFFLYSKLTVDKSRWQQGNVFSCSVMHEALHNHYTQESLSLSP
light: DIQMTQSPSSLSASVGDRVTITCRASQDISSYLNWYQQKPGKAPKLLIYYTSRLHSGVPSRFSGSGSGTDFTFTISSLQPEDIATYYCQQGNTLPYTFGQGTKVEIK
notes: Anti-human IL-6 receptor human IgG1 variant; uncertain; copies: 2 + 2
Regarding B5, the “KD(IIb) of the parent polypeptide/KD(IIb) of the altered polypeptide” value with human FcγRIIb [11] is 91.2. Besides, the Kd turned out to be 4200 nM in test [12], 34 nM with human FcγRIIb [13], 630 nM in test [14] and 33 nM in the test with human FcγRIa.

B6: IL6R-BP180/IL6R-L (antibody, human IgG1)
heavy: QVQLQESGPGLVKPSETLSLTCAVSGHSISHDHAWSWVRQPPGEGLEWIGFISYSGITNYNPSLQGRVTISRDNSKNTLYLQMNSLRAEDTAVYYCARSLARTTAMDYWGEGTLVTVSSASTKGPSVFPLAPSSKSTSGGTAALGCLVKDYFPEPVTVSWNSGALTSGVHTFPAVLQSSGLYSLSSVVTVPSSSLGTQTYICNVNHKPSNTKVDKKVEPKSCDKTHTCPPCPAPELLGDDSVFLFPPKPKDTLMISRTPEVTCVVVDVSHEDGEVKFNWYVDGVEVHNAKTKPREEQYNSTYRVVSVLTVLHQDWLNGKEYKCKVSNKALPKPIEKTISKAKGQPREPQVYTLPPSRDELTKNQVSLTCLVKGFYPSDIAVEWESNGQPENNYKTTPPVLDSDGSFFLYSKLTVDKSRWQQGNVFSCSVMHEALHNHYTQESLSLSP
light: DIQMTQSPSSLSASVGDRVTITCRASQDISSYLNWYQQKPGKAPKLLIYYTSRLHSGVPSRFSGSGSGTDFTFTISSLQPEDIATYYCQQGNTLPYTFGQGTKVEIK
notes: EU numbering
For the molecule B6, in the test with FcγRIIb [3], the “KD (IIaR)/KD (IIb)” value was determined as 18.6. Besides, in the test with FcγRIIb [4], the “KD (IIaH)/KD (IIb)” value was found to be 290. Besides, the Kd with FcγRIIa type H [5] was 1600 nM; in the test with FcγRIa [15], 96 nM.
